Legend:
HLA-B*40:01 = test: IEDB peptide-MHC binding, purified MHC/direct/fluorescence; filed as Kd, often an IC50 or EC50 that approximates it; ≥ and ≤ were set here for values at or beyond the usual limits of such assays
HLA-A*31:01 = test: as above
HLA-B*27:05 [1] = test: as above
HLA-A*03:01 = test: as above
HLA-A*26:01 [2] = test: as above
HLA-B*08:02 = test: as above; settings: source organism: Influenza A virus(A/swine/Shandong/fNY/2003(H9N2))
HLA-B*07:02 = test: as above
HLA-A*11:01 = test: as above
HLA-A*01:01 = test: as above
HLA-B*44:02 = test: as above
HLA-B*46:01 [3] = test: as above
HLA-B*15:01 [4] = test: as above
HLA-B*08:01 [5] = test: as above
HLA-A*02:01 [6] = test: as above
HLA-B*58:01 = test: as above
HLA-A*24:02 = test: as above
HLA-B*15:09 = test: as above; settings: source organism: Giardia lamblia ATCC 50803
HLA-A*69:01 [7] = test: as above
HLA-B*27:05 [8] = test: IEDB peptide-MHC binding, purified MHC/competitive/fluorescence; filed as Kd, often an IC50 or EC50 that approximates it; ≥ and ≤ were set here for values at or beyond the usual limits of such assays
HLA-B*08:01 [9] = test: as above; settings: source organism: Yersinia pestis Antiqua
HLA-A*68:02 = test: IEDB peptide-MHC binding, purified MHC/direct/fluorescence; filed as Kd, often an IC50 or EC50 that approximates it; ≥ and ≤ were set here for values at or beyond the usual limits of such assays
HLA-A*02:16 = test: as above
HLA-A*02:12 = test: as above
HLA-A*23:01 = test: as above
HLA-A*02:11 = test: as above
HLA-A*24:03 = test: as above
HLA-A*02:03 = test: as above
HLA-A*02:19 = test: as above
HLA-A*29:02 = test: as above
HLA-B*39:01 = test: IEDB peptide-MHC binding, purified MHC/competitive/fluorescence; filed as Kd, often an IC50 or EC50 that approximates it; ≥ and ≤ were set here for values at or beyond the usual limits of such assays
HLA-A*26:01 [10] = test: as above
HLA-B*51:01 = test: as above
HLA-A*69:01 [11] = test: as above
HLA-B*46:01 [12] = test: as above
HLA-B*15:01 [13] = test: as above
HLA-B*18:01 [14] = test: as above
HLA-B*57:01 [15] = test: as above
HLA-A*02:01 [16] = test: as above
HLA-B*15:17 = test: as above; settings: source organism: Orthohantavirus negraense
HLA-B*27:03 = test: IEDB peptide-MHC binding, purified MHC/direct/fluorescence; filed as Kd, often an IC50 or EC50 that approximates it; ≥ and ≤ were set here for values at or beyond the usual limits of such assays; settings: source organism: Bacillus cereus G9842
HLA-B*18:01 [17] = test: as above; settings: source organism: Bacillus cereus G9842
HLA-B*57:01 [18] = test: as above; settings: source organism: Bacillus cereus G9842
[19] = source organism: Influenza A virus (A/Viet Nam/HN/2004(H5N1))
[20] = source organism: Giardia lamblia ATCC 50803
[21] = source organism: Orthohantavirus tulaense
[22] = source organism: Orthohantavirus negraense
[23] = source organism: Bacillus cereus G9842
[24] = source organism: Francisella tularensis subsp. holarctica LVS
[25] = source organism: dengue virus type 2

ERNEQGQTL
Kd (HLA-B*40:01; [19]): ≥ 20 µM | Kd (HLA-A*31:01; [19]): ≥ 20 µM | Kd (HLA-B*27:05 [1]; [19]): ≥ 20 µM | Kd (HLA-A*03:01; [19]): ≥ 20 µM | Kd (HLA-A*26:01 [2]; source organism: Influenza A virus(A/swine/Shandong/fNY/2003(H9N2))): ≥ 20 µM | Kd (HLA-B*08:02): ≥ 20 µM | Kd (HLA-B*07:02; [19]): ≥ 20 µM | Kd (HLA-A*11:01; [19]): ≥ 20 µM | Kd (HLA-A*01:01; [19]): ≥ 20 µM | Kd (HLA-B*44:02; [19]): ≥ 20 µM | Kd (HLA-B*46:01 [3]; [19]): ≥ 20 µM | Kd (HLA-B*15:01 [4]; [19]): ≥ 20 µM | Kd (HLA-B*08:01 [5]; [19]): ≥ 20 µM | Kd (HLA-A*02:01 [6]; [19]): ≥ 20 µM | Kd (HLA-B*58:01; [19]): ≥ 20 µM | Kd (HLA-A*24:02; [19]): ≥ 20 µM

LERIKANIF
Kd (HLA-B*40:01; [20]): 2.43 µM | Kd (HLA-A*31:01; [20]): ≥ 20 µM | Kd (HLA-B*27:05 [1]; [20]): ≥ 20 µM | Kd (HLA-A*03:01; [20]): ≥ 20 µM | Kd (HLA-B*07:02; [20]): ≥ 20 µM | Kd (HLA-A*11:01; [20]): ≥ 20 µM | Kd (HLA-B*15:09): ≥ 20 µM | Kd (HLA-A*01:01; [20]): ≥ 20 µM | Kd (HLA-A*69:01 [7]; [20]): ≥ 20 µM | Kd (HLA-B*44:02; [20]): ≥ 20 µM | Kd (HLA-B*46:01 [3]; [20]): ≥ 20 µM | Kd (HLA-B*15:01 [4]; [20]): 0.918 µM | Kd (HLA-B*08:01 [5]; [20]): 16.6 µM | Kd (HLA-A*02:01 [6]; [20]): ≥ 20 µM | Kd (HLA-B*58:01; [20]): ≥ 20 µM | Kd (HLA-A*24:02; [20]): ≥ 20 µM

LRQKRKAGV
Kd (HLA-B*27:05 [8]; source organism: Yersinia pestis Antiqua): 0.0805 µM | Kd (HLA-B*08:01 [9]): ≥ 20 µM

RQWRWPLGE
Kd (HLA-B*27:05 [8]; source organism: Mycobacterium tuberculosis C): 0.928 µM

RRAYSGKQY
Kd (HLA-A*68:02; [21]): ≥ 20 µM | Kd (HLA-A*02:16; [21]): ≥ 20 µM | Kd (HLA-A*03:01; [21]): ≥ 20 µM | Kd (HLA-A*02:12; [21]): ≥ 20 µM | Kd (HLA-A*23:01; [21]): ≥ 20 µM | Kd (HLA-A*02:11; [21]): ≥ 20 µM | Kd (HLA-A*24:03; [21]): ≥ 20 µM | Kd (HLA-A*02:03; [21]): ≥ 20 µM | Kd (HLA-A*02:19; [21]): ≥ 20 µM | Kd (HLA-A*29:02; [21]): ≥ 20 µM | Kd (HLA-B*39:01; source organism: Kurkino virus): ≥ 20 µM | Kd (HLA-B*27:05 [8]; source organism: Kurkino virus): 0.23 µM | Kd (HLA-A*26:01 [10]; source organism: Kurkino virus): ≥ 20 µM | Kd (HLA-B*51:01; source organism: Kurkino virus): ≥ 20 µM | Kd (HLA-A*69:01 [11]; source organism: Kurkino virus): ≥ 20 µM | Kd (HLA-B*46:01 [12]; source organism: Kurkino virus): ≥ 20 µM | Kd (HLA-B*15:01 [13]; source organism: Kurkino virus): ≥ 20 µM | Kd (HLA-B*18:01 [14]; source organism: Kurkino virus): ≥ 20 µM | Kd (HLA-B*57:01 [15]; source organism: Kurkino virus): ≥ 20 µM | Kd (HLA-A*02:01 [16]; source organism: Kurkino virus): ≥ 20 µM

RRFTQAIYD
Kd (HLA-A*68:02; [22]): ≥ 20 µM | Kd (HLA-A*02:16; [22]): ≥ 20 µM | Kd (HLA-A*03:01; [22]): ≥ 20 µM | Kd (HLA-A*02:12; [22]): ≥ 20 µM | Kd (HLA-A*23:01; [22]): ≥ 20 µM | Kd (HLA-A*02:11; [22]): ≥ 20 µM | Kd (HLA-A*24:03; [22]): ≥ 20 µM | Kd (HLA-A*02:03; [22]): ≥ 20 µM | Kd (HLA-A*02:19; [22]): ≥ 20 µM | Kd (HLA-A*29:02; [22]): ≥ 20 µM | Kd (HLA-B*39:01; [22]): ≥ 20 µM | Kd (HLA-B*27:05 [8]; [22]): 0.317 µM | Kd (HLA-A*26:01 [10]; [22]): ≥ 20 µM | Kd (HLA-B*15:17): ≥ 20 µM | Kd (HLA-B*51:01; [22]): ≥ 20 µM | Kd (HLA-A*69:01 [11]; [22]): ≥ 20 µM | Kd (HLA-B*46:01 [12]; [22]): ≥ 20 µM | Kd (HLA-B*15:01 [13]; [22]): ≥ 20 µM | Kd (HLA-B*18:01 [14]; [22]): ≥ 20 µM | Kd (HLA-B*57:01 [15]; [22]): ≥ 20 µM | Kd (HLA-A*02:01 [16]; [22]): ≥ 20 µM

TQIPRQMVL
Kd (HLA-A*68:02; [23]): ≥ 20 µM | Kd (HLA-A*02:16; [23]): ≥ 20 µM | Kd (HLA-A*03:01; [23]): ≥ 20 µM | Kd (HLA-A*26:01 [2]; [23]): ≥ 20 µM | Kd (HLA-A*02:12; [23]): ≥ 20 µM | Kd (HLA-A*02:11; [23]): ≥ 20 µM | Kd (HLA-A*24:03; [23]): ≥ 20 µM | Kd (HLA-A*69:01 [7]; [23]): ≥ 20 µM | Kd (HLA-B*46:01 [3]; [23]): ≥ 20 µM | Kd (HLA-B*27:03): ≥ 20 µM | Kd (HLA-B*18:01 [17]): ≥ 20 µM | Kd (HLA-B*57:01 [18]): ≥ 20 µM | Kd (HLA-A*02:01 [6]; [23]): ≥ 20 µM | Kd (HLA-A*02:19; [23]): ≥ 20 µM | Kd (HLA-A*29:02; [23]): ≥ 20 µM

VYYIVVRDF
Kd (HLA-A*23:01; [24]): 0.017 µM | Kd (HLA-A*24:03; [24]): 0.0275 µM | Kd (HLA-A*24:02; [24]): 0.0061 µM

WYGMEIRPL
Kd (HLA-A*23:01; [25]): 1.8 µM | Kd (HLA-A*24:02; [25]): 0.455 µM

— the Immune Epitope Database (IEDB)
